Laboratory results published in US10087231B2, “Substitution mutant receptors and their use in an ecdysone receptor-based inducible gene expression system” (Intrexon Corporation, priority 2001, dated 2018).

B1: D450E/A451V/K452R: HsRXRβ ligand binding domain triple substitution mutant (protein)
chain: MGPKKKRKVAPPTDVSLGDELHLDGEDVAMAHADALDDFDLDMLGDGDSPGPGFTPHDSAPYGALDMADFEFEQMFTDALGIDEYGGEFPAPEEMPVDRILEAELAVEQKSDQGVEGPGGTGGSGSSPNDPVTNICQAADKQLFTLVEWAKRIPHFSSLPLDDQVILLRAGWNELLIASFSHRSIDVRDGILLATGLHVHRNSAHSAGVGAIFDRVLTELVSKMRDMRMDKTELGCLRAIILFNPEVRGLSNPSEVEVLREKVYASLETYCKQKYPEQQGRFAKLLLRLPALRSIGLKCLEHLFFFKLIGDTPIDTFLMEMLEAPHQLA
B2: S455K/N456S/P457A/S458Q: HsRXRβ ligand binding domain quadruple substitution mutant (protein)
chain: MGPKKKRKVAPPTDVSLGDELHLDGEDVAMAHADALDDFDLDMLGDGDSPGPGFTPHDSAPYGALDMADFEFEQMFTDALGIDEYGGEFPAPEEMPVDRILEAELAVEQKSDQGVEGPGGTGGSGSSPNDPVTNICQAADKQLFTLVEWAKRIPHFSSLPLDDQVILLRAGWNELLIASFSHRSIDVRDGILLATGLHVHRNSAHSAGVGAIFDRVLTELVSKMRDMRMDKTELGCLRAIILFNPDAKGLKSAQEVEVLREKVYASLETYCKQKYPEQQGRFAKLLLRLPALRSIGLKCLEHLFFFKLIGDTPIDTFLMEMLEAPHQLA
B3: V462L: HsRXRβ ligand binding domain substitution mutant (protein, listed as Homo sapiens)
chain: MSWAARPPFLPQRHAAGQCGPVGVRKEMHCGVASRWRRRRPWLDPAAAAAAAVAGGEQQTPEPEPGEAGRDGMGDSGRDSRSPDSSSPNPLPQGVPPPSPPGPPLPPSTAPSLGGSGAPPPPPMPPPPLGSPFPVISSSMGSPGLPPPAPPGFSGPVSSPQINSTVSLPGGGSGPPEDVKPPVLGVRGLHCPPPPGGPGAGKRLCAICGDRSSGKHYGVYSCEGCKGFFKRTIRKDLTYSCRDNKDCTVDKRQRNRCQYCRYQKCLATGMKREAVQEERQRGKDKDGDGEGAGGAPEEMPVDRILEAELAVEQKSDQGVEGPGGTGGSGSSPNDPVTNICQAADKQLFTLVEWAKRIPHFSSLPLDDQVILLRAGWNELLIASFSHRSIDVRDGILLATGLHVHRNSAHSAGVGAIFDRVLTELVSKMRDMRMDKTELGCLRAIILFNPDAKGLSNPSEVELLREKVYASLETYCKQKYPEQQGRFAKLLLRLPALRSIGLKCLEHLFFFKLIGDTPIDTFLMEMLEAPHQLA
modifications: ligand binding domain only
B4: C475T/K476R/Q477T/K478T/Y479H: HsRXRβ ligand binding domain quintuple substitution mutant (protein)
chain: MGPKKKRKVAPPTDVSLGDELHLDGEDVAMAHADALDDFDLDMLGDGDSPGPGFTPHDSAPYGALDMADFEFEQMFTDALGIDEYGGEFPAPEEMPVDRILEAELAVEQKSDQGVEGPGGTGGSGSSPNDPVTNICQAADKQLFTLVEWAKRIPHFSSLPLDDQVILLRAGWNELLIASFSHRSIDVRDGILLATGLHVHRNSAHSAGVGAIFDRVLTELVSKMRDMRMDKTELGCLRAIILFNPDAKGLSNPSEVEVLREKVYASLETYTRTTHPEQQGRFAKLLLRLPALRSIGLKCLEHLFFFKLIGDTPIDTFLMEMLEAPHQLA
B5: E481D/Q482E/Q483P: HsRXRβ ligand binding domain triple substitution mutant (protein)
chain: MGPKKKRKVAPPTDVSLGDELHLDGEDVAMAHADALDDFDLDMLGDGDSPGPGFTPHDSAPYGALDMADFEFEQMFTDALGIDEYGGEFPAPEEMPVDRILEAELAVEQKSDQGVEGPGGTGGSGSSPNDPVTNICQAADKQLFTLVEWAKRIPHFSSLPLDDQVILLRAGWNELLIASFSHRSIDVRDGILLATGLHVHRNSAHSAGVGAIFDRVLTELVSKMRDMRMDKTELGCLRAIILFNPDAKGLSNPSEVEVLREKVYASLETYCKQKYPDEPGRFAKLLLRLPALRSIGLKCLEHLFFFKLIGDTPIDTFLMEMLEAPHQLA
B6: T473E: HsRXRβ ligand binding domain substitution mutant (protein, listed as Homo sapiens)
chain: MSWAARPPFLPQRHAAGQCGPVGVRKEMHCGVASRWRRRRPWLDPAAAAAAAVAGGEQQTPEPEPGEAGRDGMGDSGRDSRSPDSSSPNPLPQGVPPPSPPGPPLPPSTAPSLGGSGAPPPPPMPPPPLGSPFPVISSSMGSPGLPPPAPPGFSGPVSSPQINSTVSLPGGGSGPPEDVKPPVLGVRGLHCPPPPGGPGAGKRLCAICGDRSSGKHYGVYSCEGCKGFFKRTIRKDLTYSCRDNKDCTVDKRQRNRCQYCRYQKCLATGMKREAVQEERQRGKDKDGDGEGAGGAPEEMPVDRILEAELAVEQKSDQGVEGPGGTGGSGSSPNDPVTNICQAADKQLFTLVEWAKRIPHFSSLPLDDQVILLRAGWNELLIASFSHRSIDVRDGILLATGLHVHRNSAHSAGVGAIFDRVLTELVSKMRDMRMDKTELGCLRAIILFNPDAKGLSNPSEVEVLREKVYASLEEYCKQKYPEQQGRFAKLLLRLPALRSIGLKCLEHLFFFKLIGDTPIDTFLMEMLEAPHQLA
modifications: ligand binding domain only
B7: G321L/P322R/G323V: HsRXRβ ligand binding domain triple substitution mutant (SEQ ID NO: 2) (protein, listed as Homo sapiens)
chain: MSWAARPPFLPQRHAAGQCGPVGVRKEMHCGVASRWRRRRPWLDPAAAAAAAVAGGEQQTPEPEPGEAGRDGMGDSGRDSRSPDSSSPNPLPQGVPPPSPPGPPLPPSTAPSLGGSGAPPPPPMPPPPLGSPFPVISSSMGSPGLPPPAPPGFSGPVSSPQINSTVSLPGGGSGPPEDVKPPVLGVRGLHCPPPPGGPGAGKRLCAICGDRSSGKHYGVYSCEGCKGFFKRTIRKDLTYSCRDNKDCTVDKRQRNRCQYCRYQKCLATGMKREAVQEERQRGKDKDGDGEGAGGAPEEMPVDRILEAELAVEQKSDQGVELRVGTGGSGSSPNDPVTNICQAADKQLFTLVEWAKRIPHFSSLPLDDQVILLRAGWNELLIASFSHRSIDVRDGILLATGLHVHRNSAHSAGVGAIFDRVLTELVSKMRDMRMDKTELGCLRAIILFNPDAKGLSNPSEVEVLREKVYASLETYCKQKYPEQQGRFAKLLLRLPALRSIGLKCLEHLFFFKLIGDTPIDTFLMEMLEAPHQLA
B8: G500S: HsRXRβ ligand binding domain substitution mutant, glycine to serine at 500 (protein, listed as Homo sapiens)
chain: MSWAARPPFLPQRHAAGQCGPVGVRKEMHCGVASRWRRRRPWLDPAAAAAAAVAGGEQQTPEPEPGEAGRDGMGDSGRDSRSPDSSSPNPLPQGVPPPSPPGPPLPPSTAPSLGGSGAPPPPPMPPPPLGSPFPVISSSMGSPGLPPPAPPGFSGPVSSPQINSTVSLPGGGSGPPEDVKPPVLGVRGLHCPPPPGGPGAGKRLCAICGDRSSGKHYGVYSCEGCKGFFKRTIRKDLTYSCRDNKDCTVDKRQRNRCQYCRYQKCLATGMKREAVQEERQRGKDKDGDGEGAGGAPEEMPVDRILEAELAVEQKSDQGVEGPGGTGGSGSSPNDPVTNICQAADKQLFTLVEWAKRIPHFSSLPLDDQVILLRAGWNELLIASFSHRSIDVRDGILLATGLHVHRNSAHSAGVGAIFDRVLTELVSKMRDMRMDKTELGCLRAIILFNPDAKGLSNPSEVEVLREKVYASLETYCKQKYPEQQGRFAKLLLRLPALRSISLKCLEHLFFFKLIGDTPIDTFLMEMLEAPHQLA
modifications: ligand binding domain only
B9: E472D: HsRXRβ ligand binding domain substitution mutant (protein, listed as Homo sapiens)
chain: MSWAARPPFLPQRHAAGQCGPVGVRKEMHCGVASRWRRRRPWLDPAAAAAAAVAGGEQQTPEPEPGEAGRDGMGDSGRDSRSPDSSSPNPLPQGVPPPSPPGPPLPPSTAPSLGGSGAPPPPPMPPPPLGSPFPVISSSMGSPGLPPPAPPGFSGPVSSPQINSTVSLPGGGSGPPEDVKPPVLGVRGLHCPPPPGGPGAGKRLCAICGDRSSGKHYGVYSCEGCKGFFKRTIRKDLTYSCRDNKDCTVDKRQRNRCQYCRYQKCLATGMKREAVQEERQRGKDKDGDGEGAGGAPEEMPVDRILEAELAVEQKSDQGVEGPGGTGGSGSSPNDPVTNICQAADKQLFTLVEWAKRIPHFSSLPLDDQVILLRAGWNELLIASFSHRSIDVRDGILLATGLHVHRNSAHSAGVGAIFDRVLTELVSKMRDMRMDKTELGCLRAIILFNPDAKGLSNPSEVEVLREKVYASLDTYCKQKYPEQQGRFAKLLLRLPALRSIGLKCLEHLFFFKLIGDTPIDTFLMEMLEAPHQLA
modifications: ligand binding domain only

tested on: GAL4/CfEcR-DEF and pFRLuc in NIH3T3 cells; type: cell-based, mouse; details: 0.04-25 μM GS™-E, compared to wild-type HsRXRβ-EF
Experimental: The resulting PCR nucleic acid products encoding the mutant RXR ligand binding domains were then each fused to a VP16 transactivation domain as described in Examples 1.3 and 1.6 above. The VP16/mutant RXR receptor constructs were tested for activity by transfecting them into NIH3T3 cells along with GAL4/CfEcR-DEF and pFRLuc in the presence of non-steroid ligand.
DNAs corresponding to the various switch constructs outlined in Example 1.1-1.6 were transfected into mouse NIH3T3 cells (ATCC) as follows. Standard methods for culture and maintenance of the cells were followed. […] Superfect™ (Qiagen Inc.) was used as the transfection reagent. For 12-well plates, 4 μl of Superfect™ was mixed with 100 μl of growth medium. One μg of reporter construct and 0.25 μg of each receptor construct of the receptor pair to be analyzed were added to the transfection mix. […] The cells were harvested and reporter activity was assayed.
Cells were harvested 40 hours after adding ligand. […] Twenty μl of lysate were assayed. […]
The cells were harvested and reporter activity was assayed as described above.
As discussed above, a CfEcR-based gene regulation system is ligand dependent when RXRs are used as the heterodimeric partner and ligand independent when USPs are used as the heterodimeric partner. However, reporter gene expression is induced at very high levels when CfUSP is used as the heterodimeric partner. To improve RXR as heterodimeric partner, Applicants have aligned the polypeptide sequences of several USP and RXR ligand binding domains (domains EF) and identified amino acid residues that are different between these two nuclear receptor family members. In particular, Applicants identified residues that are conserved in all USPs but are different in RXRs and mutated these residues in HsRXRβ. […] The cells were harvested and reporter activity was assayed as described above.

Molecule	non-steroid ligand sensitivity
B1	improved non-steroid ligand sensitivity
B2	improved non-steroid ligand sensitivity
B3	improved non-steroid ligand sensitivity
B4	improved non-steroid ligand sensitivity
B5	improved non-steroid ligand sensitivity
B6	improved non-steroid ligand sensitivity
B7	improved ligand sensitivity
B8	improved ligand sensitivity
B9	improved ligand sensitivity
